Earlier results as cited in publication PMC2855346.

Target: CCR2 (Homo sapiens) (UniProt P41597)
Chain of UniProt P41597 (P41597 whole entry): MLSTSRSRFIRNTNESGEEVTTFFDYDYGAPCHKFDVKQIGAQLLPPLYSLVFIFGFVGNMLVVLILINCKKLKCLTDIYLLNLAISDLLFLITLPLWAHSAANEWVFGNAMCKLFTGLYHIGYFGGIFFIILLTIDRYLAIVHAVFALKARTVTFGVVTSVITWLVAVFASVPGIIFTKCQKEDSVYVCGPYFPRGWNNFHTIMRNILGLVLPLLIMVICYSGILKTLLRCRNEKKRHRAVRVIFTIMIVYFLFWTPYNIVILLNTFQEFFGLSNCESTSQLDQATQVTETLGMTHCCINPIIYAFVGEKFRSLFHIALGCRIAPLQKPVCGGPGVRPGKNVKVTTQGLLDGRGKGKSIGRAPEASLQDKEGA

Q: For CCL2 (from UniProt P13500), which Kd is on record?
A: 2.5 nM
